Test system: HEK CCK2R tumor xenografts
Experiment: In vivo radio-imaging and bio-distribution, HEK CCK2R tumor xenografts
Design: species or system nu/nu mice
Method: In order to test the in vivo specificity of CRL-3 chelated with ^99mTc, HEK CCK2R and CCK2i4svR subcutaneous tumors were produced in nude mice according to known methods. Athymic female nu/nu mice were purchased from Harlan Laboratories and maintained on normal rodent chow and housed in a sterile environment on a standard 12 hour light and dark cycle for the duration of the study. All animal procedures were approved by the Purdue Animal Care and Use Committee in accordance with NIH guidelines.
150 microcurie of CRL-3 ^99mTc was injected intravenously into each mouse. FIGS. 3A-B show an overlay of whole-body radio-images on white light photographs of mice bearing images of HEK CCK2R (a, b) and HEK CCKRi4sv (c, d) tumor xenografts in nu/nu mice two hours after the administration of CRL-3 ^99mTc. Kidneys were shielded with a lead plate. Mice a and c had the radioactive conjugate administered along with 100 fold of free unlabeled targeting ligand. In mice b and d, only the radio-conjugate CRL-3 ^99mTc was administered. Arrows indicate location of the tumor.
Following the above radio-imaging studies, animals were dissected and selected organs/tissues were collected into pre-weighed γ-counter tubes. Radioactivity of weighed tissues and test compounds were counted in a γ-counter. CPM values were decay corrected and results were calculated as % injected dose per gram of wet tissue (% ID/g). FIGS. 4A-B show the bio-distribution of the CRL-3 ^99mTc in mice having HEK CCK2i4svR and HEK CCK2R tumors. Error bars represent the standard deviation (n=5 mice/group).
Since small molecules are often excreted via the kidneys^43, we next elected to determine whether uptake of CRL-3 ^99mTc in the kidneys might be transient. […] By 24 h post tail vein injection, tumor to tissue ratios of CRL-3 ^99mTc in the muscle, heart, skin, blood, liver, and spleen were 90, 83, 30, 61, 4 and 14, respectively (see also Table 3).

[1] = 0.5, 2, 4, 8 hours post tail vein injection

CC(C)(C)C(=O)CN1C(=O)[C@H](NC(=O)Nc2cccc(C(=O)NCCCCCCCC(=O)N[C@H](CCC(=O)O)C(=O)N[C@H](CCC(=O)NC[C@H](O)[C@@H](O)[C@H](O)[C@H](O)CO)C(=O)N[C@H](CCC(=O)O)C(=O)N[C@H](CCC(=O)NC[C@H](O)[C@@H](O)[C@H](O)[C@H](O)CO)C(=O)NC[C@@H]3[NH][99Tc]45[S]C[C@@H](C(=O)O)[N]4C(=O)[C@H](CC(=O)O)[N]5C3=O)c2)CN(C2CCCCC2)c2ccccc21 (stereo partly shown) [CRL-3 ^99mTc]
content of the kidneys over time (SPECT-CT) [1]: decreased significantly over time
uptake in the tumor mass over time (SPECT-CT) [1]: relatively stable
accumulation of radio-conjugate, whole-body radio-image (150 microcurie i.v., two hours after administration, kidneys shielded): accumulated mainly in the receptor expressing tumor with little or no accumulation in other tissues except the kidney
tumor to tissue ratio, blood (24 h post tail vein injection): 61
tumor to tissue ratio, heart (24 h post tail vein injection): 83
tumor to tissue ratio, liver (24 h post tail vein injection): 4
tumor to tissue ratio, muscle (24 h post tail vein injection): 90
tumor to tissue ratio, skin (24 h post tail vein injection): 30
tumor to tissue ratio, spleen (24 h post tail vein injection): 14
Uptake of radioactivity, Blood (0.5 h post injection): 5.8 ± 2.7 % ID/g
Uptake of radioactivity, Blood (2 h post injection): 1.9 ± 0.97 % ID/g
Uptake of radioactivity, Blood (4 h post injection): 1.7 % ID/g
Uptake of radioactivity, Blood (8 h post injection): 0.24 % ID/g
Uptake of radioactivity, Blood (24 h post injection): 0.10 % ID/g
Uptake of radioactivity, Brain (0.5 h post injection): 0.13 % ID/g
Uptake of radioactivity, Brain (2 h post injection): 0.051 % ID/g
Uptake of radioactivity, Brain (4 h post injection): 0.053 % ID/g
Uptake of radioactivity, Brain (8 h post injection): 0.064 % ID/g
Uptake of radioactivity, Brain (24 h post injection): 0.0076 % ID/g
Uptake of radioactivity, Heart (0.5 h post injection): 2.3 ± 1.5 % ID/g
Uptake of radioactivity, Heart (2 h post injection): 0.68 ± 0.47 % ID/g
Uptake of radioactivity, Heart (4 h post injection): 0.59 % ID/g
Uptake of radioactivity, Heart (8 h post injection): 0.14 % ID/g
Uptake of radioactivity, Heart (24 h post injection): 0.076 % ID/g
Uptake of radioactivity, Large Intestine (0.5 h post injection): 1.0 ± 0.52 % ID/g
Uptake of radioactivity, Large Intestine (2 h post injection): 0.46 ± 0.20 % ID/g
Uptake of radioactivity, Large Intestine (4 h post injection): 0.53 % ID/g
Uptake of radioactivity, Large Intestine (8 h post injection): 0.24 % ID/g
Uptake of radioactivity, Large Intestine (24 h post injection): 0.13 % ID/g
Uptake of radioactivity, Left Kidney (0.5 h post injection): 11.2 ± 6.1 % ID/g
Uptake of radioactivity, Left Kidney (2 h post injection): 8.4 ± 4.6 % ID/g
Uptake of radioactivity, Left Kidney (4 h post injection): 13.4 % ID/g
Uptake of radioactivity, Left Kidney (8 h post injection): 6.0 % ID/g
Uptake of radioactivity, Left Kidney (24 h post injection): 2.6 % ID/g
Uptake of radioactivity, Liver (0.5 h post injection): 6.7 ± 3.6 % ID/g
Uptake of radioactivity, Liver (2 h post injection): 2.5 ± 2.4 % ID/g
Uptake of radioactivity, Liver (4 h post injection): 4.1 % ID/g
Uptake of radioactivity, Liver (8 h post injection): 1.9 % ID/g
Uptake of radioactivity, Liver (24 h post injection): 1.4 % ID/g
Uptake of radioactivity, Lungs (0.5 h post injection): 3.2 ± 1.7 % ID/g
Uptake of radioactivity, Lungs (2 h post injection): 1.2 ± 0.55 % ID/g
Uptake of radioactivity, Lungs (4 h post injection): 1.0 % ID/g
Uptake of radioactivity, Lungs (8 h post injection): 0.29 % ID/g
Uptake of radioactivity, Lungs (24 h post injection): 0.18 % ID/g
Uptake of radioactivity, Muscle (0.5 h post injection): 0.8 ± 0.37 % ID/g
Uptake of radioactivity, Muscle (2 h post injection): 0.29 % ID/g
Uptake of radioactivity, Muscle (4 h post injection): 0.3 % ID/g
Uptake of radioactivity, Muscle (8 h post injection): 0.093 % ID/g
Uptake of radioactivity, Muscle (24 h post injection): 0.070 % ID/g
Uptake of radioactivity, Pancreas (0.5 h post injection): 1.3 ± 0.62 % ID/g
Uptake of radioactivity, Pancreas (2 h post injection): 0.69 ± 0.84 % ID/g
Uptake of radioactivity, Pancreas (4 h post injection): 0.29 % ID/g
Uptake of radioactivity, Pancreas (8 h post injection): 0.10 % ID/g
Uptake of radioactivity, Pancreas (24 h post injection): 0.053 % ID/g
Uptake of radioactivity, Right Kidney (0.5 h post injection): 11.4 ± 6.3 % ID/g
Uptake of radioactivity, Right Kidney (2 h post injection): 7.6 ± 4.4 % ID/g
Uptake of radioactivity, Right Kidney (4 h post injection): 12.8 % ID/g
Uptake of radioactivity, Right Kidney (8 h post injection): 5.7 % ID/g
Uptake of radioactivity, Right Kidney (24 h post injection): 2.6 % ID/g
Uptake of radioactivity, Skin (0.5 h post injection): 2.3 ± 1.2 % ID/g
Uptake of radioactivity, Skin (2 h post injection): 1.0 ± 0.41 % ID/g
Uptake of radioactivity, Skin (4 h post injection): 1.1 % ID/g
Uptake of radioactivity, Skin (8 h post injection): 0.42 % ID/g
Uptake of radioactivity, Skin (24 h post injection): 0.21 % ID/g
Uptake of radioactivity, Small Intestine (0.5 h post injection): 1.2 ± 0.63 % ID/g
Uptake of radioactivity, Small Intestine (2 h post injection): 0.52 ± 0.28 % ID/g
Uptake of radioactivity, Small Intestine (4 h post injection): 0.52 % ID/g
Uptake of radioactivity, Small Intestine (8 h post injection): 0.19 % ID/g
Uptake of radioactivity, Small Intestine (24 h post injection): 0.13 % ID/g
Uptake of radioactivity, Spleen (0.5 h post injection): 2.1 ± 1.2 % ID/g
Uptake of radioactivity, Spleen (2 h post injection): 0.69 ± 0.70 % ID/g
Uptake of radioactivity, Spleen (4 h post injection): 1.4 % ID/g
Uptake of radioactivity, Spleen (8 h post injection): 0.65 % ID/g
Uptake of radioactivity, Spleen (24 h post injection): 0.45 % ID/g
Uptake of radioactivity, Stomach (0.5 h post injection): 1.2 ± 0.61 % ID/g
Uptake of radioactivity, Stomach (2 h post injection): 0.58 ± 0.32 % ID/g
Uptake of radioactivity, Stomach (4 h post injection): 0.56 % ID/g
Uptake of radioactivity, Stomach (8 h post injection): 0.24 % ID/g
Uptake of radioactivity, Stomach (24 h post injection): 0.15 % ID/g
Uptake of radioactivity, Tumor (0.5 h post injection): 7.4 ± 4.6 % ID/g
Uptake of radioactivity, Tumor (2 h post injection): 8.1 ± 5.1 % ID/g
Uptake of radioactivity, Tumor (4 h post injection): 12.0 % ID/g
Uptake of radioactivity, Tumor (8 h post injection): 8.5 % ID/g
Uptake of radioactivity, Tumor (24 h post injection): 6.3 ±3.7 % ID/g
bio-distribution of radiotracer in organs/tissues (after radio-imaging, n=5 mice/group): only the tumor and kidneys show excessive accumulation of radiotracer
